Laboratory results as given in patent US6787359B1, “Gene transfer methods” (Takara Shuzo Co., Ltd., priority 1998, dated 2004).

Test system: mouse leukemia L1210 cells
Test: Gene transfer with PM5neo virus on coated plates, G418-resistant cells by WST-1 absorbance
Assay type: cell-based
Details: for Absorbance difference (450 nm-650 nm), G418-resistant cells: Experiment 2
Procedure: 50 μl of […] solution of H-271, H-296, C-274, CH-271, CH-296, ColV, human basic fibroblast growth factor (bFGF; Progen), tenascin (Gibco) or epidermal growth factor (EGF; Takara Shuzo), or 50 μl of 2% bovine serum albumin (BSA, Sigma) was added to each well of a 96-well non-treated microplate for cell culture (Falcon). The plate was allowed to stand at 4° C. overnight and then washed twice with phosphate buffered saline (PBS; Roman Kogyo). Alternatively, after the plate was treated as described above, 0.1 ml of 4 mg/ml solution of 1-ethyl-3-dimethylaminopropylcarbodiimide hydrochloride (Sigma) in sterile pure water was dispensed to each well. The reaction was allowed to proceed at 37° C. for 2 hours. The plate was washed extensively with pure water to prepare a carbodiimide-treated plate. These plates were stored at 4° C. until viral infection experiments were conducted.
10^4 mouse leukemia L1210 cells (ATCC CCL-219), which had been grown in RPMI 1640 medium (Bio Whittaker) supplemented with 10% FCS, 50 units/ml penicillin and 50 μg/ml streptomycin, and 50 μl of PM5neo virus supernatant (10^4 cfu/ml) were added to the well of the microplate. After the plate was incubated for 24 hours, the medium was changed to the same medium containing G418 (Gibco) at a final concentration of 0.75 mg/ml, and the plate was then incubated for additional 48 hours. G418-resistance cells were assessed according to the method as described in S. Kim et al. [Gene Therapy, 3:1018-1020 (1996)] with a partial modification in which color developed using Premix WST-1 reagent (Takara Shuzo) was measured as absorbance at 450 nm. […] Absorbance at 450 nm and 650 nm was then measured using a microplate reader, and the difference (450 nm-650 nm) was calculated. The value obtained using a plate coated with 2% BSA without carbodiimide treatment was defined as background.

B1: EGF: epidermal growth factor (Takara Shuzo) (protein, UniProt P01133 23-1207, looked up)
Pro-epidermal growth factor: PQHWSCPEGTLAGNGNSTCVGPAPFLIFSHGNSIFRIDTEGTNYEQLVVDAGVSVIMDFHYNEKRIYWVDLERQLLQRVFLNGSRQERVCNIEKNVSGMAINWINEEVIWSNQQEGIITVTDMKGNNSHILLSALKYPANVAVDPVERFIFWSSEVAGSLYRADLDGVGVKALLETSEKITAVSLDVLDKRLFWIQYNREGSNSLICSCDYDGGSVHISKHPTQHNLFAMSLFGDRIFYSTWKMKTIWIANKHTGKDMVRINLHSSFVPLGELKVVHPLAQPKAEDDTWEPEQKLCKLRKGNCSSTVCGQDLQSHLCMCAEGYALSRDRKYCEDVNECAFWNHGCTLGCKNTPGSYYCTCPVGFVLLPDGKRCHQLVSCPRNVSECSHDCVLTSEGPLCFCPEGSVLERDGKTCSGCSSPDNGGCSQLCVPLSPVSWECDCFPGYDLQLDEKSCAASGPQPFLLFANSQDIRHMHFDGTDYGTLLSQQMGMVYALDHDPVENKIYFAHTALKWIERANMDGSQRERLIEEGVDVPEGLAVDWIGRRFYWTDRGKSLIGRSDLNGKRSKIITKENISQPRGIAVHPMAKRLFWTDTGINPRIESSSLQGLGRLVIASSDLIWPSGITIDFLTDKLYWCDAKQSVIEMANLDGSKRRRLTQNDVGHPFAVAVFEDYVWFSDWAMPSVMRVNKRTGKDRVRLQGSMLKPSSLVVVHPLAKPGADPCLYQNGGCEHICKKRLGTAWCSCREGFMKASDGKTCLALDGHQLLAGGEVDLKNQVTPLDILSKTRVSEDNITESQHMLVAEIMVSDQDDCAPVGCSMYARCISEGEDATCQCLKGFAGDGKLCSDIDECEMGVPVCPPASSKCINTEGGYVCRCSEGYQGDGIHCLDIDECQLGEHSCGENASCTNTEGGYTCMCAGRLSEPGLICPDSTPPPHLREDDHHYSVRNSDSECPLSHDGYCLHDGVCMYIEALDKYACNCVVGYIGERCQYRDLKWWELRHAGHGQQQKVIVVAVCVVVLVMLLLLSLWGAHYYRTQKLLSKNPKNPYEESSRDVRSRRPADTEDGMSSCPQPWFVVIKEHQDLKNGGQPVAGEDGQAADGSMQPTSWRQEPQLCGMGTEQGCWIPVSSDKGSCPQVMERSFHMPSYGTQTLEGGVEKPHSLLSANPLWQQRALDPPHQMELTQ
modifications: Pro-epidermal growth factor
Absorbance difference (450 nm-650 nm), G418-resistant cells (plate treated with carbodiimide): 0.077 ± 0.038 | Absorbance difference (450 nm-650 nm), G418-resistant cells (plate untreated): 0.030 ± 0.021 | Appearance of G418-resistant cells (in words) (carbodiimide treatment carried out): increased
